From PMC10641069, “Intra- and inter-molecular regulation by intrinsically-disordered regions governs PUF protein RNA binding” (Nature Communications, 2023)
Where “and” joins values, the source holds several entries; their conditions need not be identical. Equal values may be shown once. Read-outs that look alike come from different tables or passages of the source.

B1: FBF-2 RBD + CT: C. elegans FBF-2 RBD plus C-terminal tail, residues 164-632 (protein)
chain: SNNVLPTWSLDSNGEMRSRLSLSEVLDSGDLMKFAVDKTGCQFLEKAVKGSLTSYQKFQLFEQVIGRKDDFLKLSTNIFGNYLVQSVIGISLATNDDGYTKRQEKLKNFISSQMTDMCLDKFACRVIQSSLQNMDLSLACKLVQALPRDARLIAICVDQNANHVIQKVVAVIPLKNWEFIVDFVATPEHLRQICSDKYGCRVVQTIIEKLTADSMNVDLTSAAQNLRERALQRLMTSVTNRCQELATNEYANYIIQHIVSNDDLAVYRECIIEKCLMRNLLSLSQEKFASHVVEKAFLHAPLELLAEMMDEIFDGYIPHPDTGKDALDIMMFHQFGNYVVQCMLTICCDAVSGRRQTKEGGYDHAISFQDWLKKLHSRVTKERHRLSRFSSGKKMIETLANLRSTHPIYELQSSGHDSFKTDYFSTASEHDGPELEKNGIEEGSLMLEPRSNKSSVSVKFSSSGSHGDD
modifications: left off: His6-SUMO, N-terminal, cleaved
B2: FBF-2 RBD + CT L610A: FBF-2 RBD + CT mutated in the C-terminal tail (L610A) (protein)
chain: SNNVLPTWSLDSNGEMRSRLSLSEVLDSGDLMKFAVDKTGCQFLEKAVKGSLTSYQKFQLFEQVIGRKDDFLKLSTNIFGNYLVQSVIGISLATNDDGYTKRQEKLKNFISSQMTDMCLDKFACRVIQSSLQNMDLSLACKLVQALPRDARLIAICVDQNANHVIQKVVAVIPLKNWEFIVDFVATPEHLRQICSDKYGCRVVQTIIEKLTADSMNVDLTSAAQNLRERALQRLMTSVTNRCQELATNEYANYIIQHIVSNDDLAVYRECIIEKCLMRNLLSLSQEKFASHVVEKAFLHAPLELLAEMMDEIFDGYIPHPDTGKDALDIMMFHQFGNYVVQCMLTICCDAVSGRRQTKEGGYDHAISFQDWLKKLHSRVTKERHRLSRFSSGKKMIETLANLRSTHPIYELQSSGHDSFKTDYFSTASEHDGPELEKNGIEEGSLMAEPRSNKSSVSVKFSSSGSHGDD
modifications: left off: His6-SUMO, N-terminal, cleaved

Key:
gld-1 FBEa RNA [1] = assay: Electrophoretic mobility shift assay (EMSA), RNA binding; parameters: species or system C. elegans
Procedure: A 3′-Cy5-labeled synthetic RNA was ordered from IDT (gld-1 FBEa, 5′-[…]-3′). The FBF-2 proteins were serially diluted 2-fold from the highest concentration of 10 µM in the buffer used for gel filtration (20 mM HEPES pH 7.4, 150 mM NaCl, and 0.5 mM TCEP). 10 µl of the serially diluted protein samples were mixed with 10 µl RNA (10 nM) in a 2× buffer of 10 mM HEPES pH 7.4, 0.01% (v/v) Tween 20, 0.1 mg/ml BSA, 0.1 mg/ml yeast tRNA, and 2 mM DTT. For experiments in the presence of LST-1, LST-1 proteins at constant concentration were preincubated with FBF-2 at 4 °C for 2 h. The LST-1 concentrations were chosen based on their Kd’s for interaction with FBF-2. The final FBF-2 concentrations ranged from 5000 nM to 0.6 nM, and the LST-1 A or B concentrations were constant at 150 μM or 50 μM, respectively. The protein-RNA mixtures were incubated at 4 °C overnight. The samples were resolved on 10% TBE polyacrylamide gels run at constant voltage (100 V) with 1× TBE buffer at room temperature for 35 min. The gels were scanned and visualized with a Typhoon FLA 9500 imager using the Cy5 channel (excitation wavelength 635 nm). Band intensities were quantified with ImageQuant 5.2 (Cytiva). The data were fit with GraphPad Prism (version 9.2.0) using nonlinear regression with a one-site specific binding model. Mean Kd’s and standard error of the mean (SEM) from three or more technical replicates are reported (Supplementary Table 4). Full scan images for the replicates shown in the main figures and gel images for all replicates are included in a source data file.

gld-1 FBEa RNA [2] = assay: Surface plasmon resonance, RNA-binding kinetics; parameters: species or system C. elegans
Procedure: Kinetics of FBF-2 binding to the gld-1 FBEa RNA were measured using a 2-channel OpenSPR instrument (Nicoya). A 3′-biotin-labeled synthetic RNA was ordered from Horizon Discovery (gld-1 FBEa, 5′-AUCAUGUGCCAUACA-biotin-3′). The 3′-biotinylated RNA was immobilized on streptavidin-treated biotin sensor chips (Nicoya). All experiments were performed at 20 °C with a buffer of 20 mM HEPES, pH 7.4, 150 mM NaCl, and 2 mM DTT. SPR data were collected using OpenSPR (Nicoya, version 4.3). FBF-2 proteins were injected with a flow rate of 20 µl/min. Data were obtained at five different protein concentrations (25, 50, 100, 200, and 400 nM for wild type RBD + CT; 12.5, 25, 50, 100, and 200 nM for RBD + CT mutants and wild type RBD). Sensor chips were regenerated using 0.05% or 0.1% (v/v) SDS. For each experiment, five binding curves were simultaneously fit using a 1:1 binding model with the TraceDrawer software (Ridgeview Instruments, version 1.9.1). Mean values and standard deviation were calculated from two technical replicates. Despite our efforts, the fit of the binding curves for the association phase of FBF-2 RBD and FBF-2 RBD + CT mutants is poorer than the fit for FBF-2 RBD + CT WT. The appearance of the curves is consistent with the derived kon and koff values, and importantly, the curve fit for the dissociation phase is better.

[3] = Melting temperature of FBF-2 proteins; assay type: physicochemical; settings: for thermal stability: in words, vs RBD alone or vs RBD + CT
Procedure: Mutants of FBF-2 RBD + CT: Y479A (5′-[…]), L610A (5′-[…]), and Loop6A (E592A, D594A, E597A, E599A, E604A, E605A; 5′-[…]) were generated by site-directed mutagenesis with the primers indicated. Plasmid sequences were verified by DNA sequencing (Azenta Life Sciences). Protein variants were expressed and purified like wild type proteins. Melting temperatures of wild type and mutant proteins were assessed by differential scanning […]. Reaction mixtures (total volume of 20 μl) contained ~0.3 mg/ml FBF-2 proteins and Sypro Orange dye (1:1000 dilution) (Sigma). Fluorescent intensity was collected from 25 °C to 95 °C (3 °C increment/min) with a real time PCR instrument (Applied Biosystems™ QuantStudio 7 Flex System) using excitation and emission wavelengths of 470 nm and 586 nm, respectively. Protein Thermal Shift^TM software (Applied Biosystems, version 1.4) was used to analyze protein melting curves and calculate melting temperatures (Tm).

[4] = no LST-1, mean ± SEM of independent technical replicates (n = 3-5), 4 °C overnight, pH 7.4, Cy5-RNA 5′-AUCAUGUGCCAUAC-3′
[5] = derived from on/off rates, mean ± SD, two technical replicates
[6] = mean ± SD, two technical replicates, 20 °C, pH 7.4, 1:1 model
[7] = mean ± SD, three technical replicates, ~0.3 mg/ml protein, Sypro Orange, 25 to 95 °C, fluorescence

Molecule	Kd (gld-1 FBEa RNA [1]; [4])	Kd (gld-1 FBEa RNA [1]; no LST-1, replicate 1)	Kd (gld-1 FBEa RNA [1]; no LST-1, replicate 2)	Kd (gld-1 FBEa RNA [1]; no LST-1, replicate 3)	Kd (gld-1 FBEa RNA [1]; no LST-1, replicate 4)	Kd (gld-1 FBEa RNA [1]; pH 7.4)	Kd (gld-1 FBEa RNA [2]; [5])	koff (gld-1 FBEa RNA [2]; [6])	kon (gld-1 FBEa RNA [2]; [6])	Kd (gld-1 FBEa RNA [2]; replicate 1)	kon (gld-1 FBEa RNA [2]; replicate 1)	koff (gld-1 FBEa RNA [2]; replicate 1, read-out: koff)	Kd (gld-1 FBEa RNA [2]; replicate 2)	kon (gld-1 FBEa RNA [2]; replicate 2)	koff (gld-1 FBEa RNA [2]; replicate 2, read-out: koff)	thermal stability [3]	Tm [3, 7]	Tm ([3]; replicate 1)	Tm ([3]; replicate 2)	Tm ([3]; replicate 3)	further results
B1	334 nM	294 nM	394 nM	379 nM	270 nM	114 nM and 68 nM	65.1 ± 21.1 nM	0.00442 s⁻¹	71000 M⁻¹ s⁻¹	80 nM	58700 M⁻¹ s⁻¹	0.00469 s⁻¹	50 nM	82500 M⁻¹ s⁻¹	0.00414 s⁻¹	increased thermal stability compared to the RBD alone	40.24 ± 0.12 °C	40.06 °C	40.48 °C	40.20 °C	fold weaker RNA-binding affinity (gld-1 FBEa RNA [1]; RBD + CT vs RBD alone): ~5 fold; Kd (gld-1 FBEa RNA [1]; with 150 μM LST-1 A, replicate 1): 111 nM; Kd (gld-1 FBEa RNA [1]; with 150 μM LST-1 A, replicate 2): 106 nM; fold faster off rate (gld-1 FBEa RNA [2]; RBD + CT vs RBD): ~ 5 fold
B2	51 nM	38 nM	32 nM	66 nM	30 nM	82 ± 18 nM	9.4 ± 3.6 nM	1.36 ± 0.11 x10^-3 s^-1	15.5 ± 4.7 x10^4 M^-1 s^-1	11.9 nM	121000 M⁻¹ s⁻¹	0.00144 s⁻¹	6.8 nM	188000 M⁻¹ s⁻¹	0.00128 s⁻¹	melting temperature of the mutated protein near that of the RBD alone	35.63 ± 0.05 °C	35.72 °C	35.58 °C	35.58 °C	Kd (gld-1 FBEa RNA [1]): 61 nM and 93 nM and 91 nM; Kd (gld-1 FBEa RNA [1]; no LST-1, replicate 5): 89 nM
